From publication PMC3774140

What was measured:
[1] = target: SKN-1 50 amino acid bait construct encoding the lax120(S245L) mutation (C. elegans); experiment: two-hybrid
[2] = target: SKN-1 50 amino acid bait construct encoding the lax188(E237K) mutation (C. elegans); experiment: two-hybrid

percent decrease of the interaction against the wild-type 50-mer bait [1]: 75%
percent decrease of the interaction against the wild-type 50-mer bait [2]: 72%
Substance: PGAM-5 (Y2H prey from the cDNA library) (natural protein)
